Where only a bound is given, the exact number is not on record here.

The subject of one data set is Pancreatin. Particulars: pH 7.5.
In a further data set the test system is Pepsin (Gastric). As to conditions: pH 1.3.
The conditions of data set [1]: pH 1.3.
A further data set relates to Chymotrypsin. Particulars: pH 6.
The next data set concerns albino mice. The data set is described as follows: Blood glucose after oral glucose challenge in fasted mice (Example IV). In kind it is in vivo. The protocol: Comparative studies using bovine insulin were conducted on polymer-insulin conjugates and on native insulin to determine their relative stability and activity in animal models. In the animal studies, the efficacy of the polymer-insulin in lowering the blood level was compared to that of native insulin. Female and male albino mice averaging 25 g in weight were fasted overnight and used in groups of five for each treatment conducted in several phases over a period of two days. […] Conjugate 1) Group 3, 100 μg/kg, orally); or Conjugate 1 (Group 4, 100 μg/kg, subcutaneously) at time 0. […] Animals were fasted overnight before treatment and for the duration of the study. All test materials were prepared in phosphate buffered saline, pH 7.4. […] At the scheduled sample time blood was collected from the tail vein and immediately analyzed for glucose content using a One Touch Digital Glucose Meter (Life Scan).

A short description of data set [2]: Closed loop assay, serum insulin by ELISA. It is filed as in vivo, Sprague-Dawley rats. As to conditions: 10 and 30 milligrams of insulin per kilogram. The protocol:
FIG. 3 is a graph of ELISA assay results for native insulin in the NRS pool of various Sprague-Dawley rats, showing insulin concentration as a function of time, prior to and after dosing with insulin, at respective doses of 10 milligrams of insulin per kilogram of body weight, and at 30 milligrams of insulin per kilogram of body weight. Two rats were dosed at 10 milligrams insulin per kilogram of body weight (Rats C and I) and two rats were dosed at 30 milligrams insulin per kilogram of body weight (Rats K and L).
FIG. 4 is a graph of ELISA assay results for insulin in the NRS pool of various Sprague-Dawley rats, showing insulin concentration as a function of time, prior to and after dosing with insulin, at respective doses of 10 milligrams of insulin per kilogram of body weight, and at 30 milligrams of insulin per kilogram of body weight, wherein the insulin is administered as a conjugate, insulin-hexyl-PEG7-OMe.
A general note: An ELISA detects its analyte on a solid surface through an enzyme-linked reagent.

The subject of a further data set is pancreatomized dogs. The data set is described as follows: Blood glucose after oral microemulsion insulin formulation. In kind it is in vivo. Particulars: 1.0 mg/kg orally, emulsion formulation (native Zinc insulin or Hex-insulin mixture). As to the method: (§1) FIG. 6 is a graph of insulin and blood glucose levels as a function of time, after dosing of canine subjects with a microemulsion insulin formulation representative of the present invention. The respective curves shown in the graph include native Zinc insulin; glucose ( ), hex-insulin; glucose (▪); native Zinc insulin; insulin (Δ); and hex-insulin; insulin (Δ).
(§2) Glucose data were normalized to the baseline glucose levels (0 minutes). Dogs were dosed orally with one of two emulsion formulations (native Zinc insulin or Hex-insulin mixture). The dose was adjusted to 1.0 mg/kg. Samples were collected at 30 minute intervals. The data were corrected for Hex-insulin reactivity in the BMI ELISA and Pharmacia RIA tests.

The nature of data set [3]: Serum insulin after oral microemulsion insulin formulation. In kind it is in vivo, dogs. As to conditions: 1.0 mg/kg orally. As to the method: as §1, §2

With “Insulin (Na): native (bovine) insulin, sodium form, comparator in stability studies”, the “Stability, Pancreatin 6 units/mL” value with Pancreatin was determined as 77 min. Also, in the data set on Pepsin (Gastric), the “Stability, Pepsin (Gastric) 1.5 units/mL” value came to 9 min. Also, the “Stability, Acid” value in data set [1] is 153 h. In addition, in the data set with Chymotrypsin, the “Stability, Chymotrypsin” value stood at 13 min.
With “native insulin: unconjugated insulin comparator: bovine insulin in Example IV, native Zinc insulin emulsion in Example XIX”, the “Duration of hypoglycemic effect” value in the data set on albino mice (100 μg/kg subcutaneously) turned out to be 3.5 h. Besides, the Blood glucose levels result with albino mice (100 μg/kg subcutaneously, 30 minute time point, control = Group 5, untreated) is “approximately 30 % of control”. Besides, in the data set with albino mice (1.5 mg/kg orally by gavage), the “Blood glucose levels lowered to a maximum of” value is given as 60 % of control and the “Time of maximum response after treatment” value worked out at 30 min. Further, in the data set with albino mice (Group 2, 1.5 mg/kg orally), the “Glucose levels after four hours” value is listed as “remained above control”. In addition, in data set [2], the “Insulin concentration over the timecourse” value is on record as “flat throughout the timecourse”. Further, in the data set with pancreatomized dogs, the “Glucose return to baseline by” value is 360 to 480 min and the “Time of maximal glucose depression” value lay in the range of 9 to 180 min. The “Time of peak insulin immunoreactivity in the serum after dosing” value in data set [3] (emulsion formulation (native Zinc insulin or Hex-insulin mixture)) was at most 30 min. Besides, the “Serum insulin return to baseline” value in data set [3] (emulsion formulation, in all cases) was in the range of 120 to 240 min.

The values above are taken from patent publication US20030229006A1, “Amphiphilic oligomers” (priority 1993, published 2003).
